From patent publication US20080254465, “Assays for measuring nucleic acid binding proteins and enzyme activities” (BioVeris Corporation, published 2008)

B1: NF-kB consensus substrate, phosphorothioate (dsDNA)
DNA 1: AGTTGAGGGGACTTTCCCAGGC
DNA 2: GCCTGGGAAAGTCCCCTCAACT
modifications: PS within bracketed nucleotides AGTTGAGG (5') and CCCAGGC (3') of the labelled strand
B2: NF-kB consensus substrate, all phosphodiester (dsDNA)
DNA 1: AGTTGAGGGGACTTTCCCAGGC
DNA 2: GCCTGGGAAAGTCCCCTCAACT

What was measured:
NF-kB p50 subunit [1] = target: T1, NF-kB p50 subunit (UniProt P19838 P19838:1-433); test: footprint; DNase I protection with ECL readout; dose dependent, signal 1729305 at 7 ng vs 96862 unprotected and 2591957 without DNase; poly dI-dC, room temperature; settings: tags: recombinant, Promega; chain copies: 2 inferred
T1 sequence (P19838 1-433, one chain of several): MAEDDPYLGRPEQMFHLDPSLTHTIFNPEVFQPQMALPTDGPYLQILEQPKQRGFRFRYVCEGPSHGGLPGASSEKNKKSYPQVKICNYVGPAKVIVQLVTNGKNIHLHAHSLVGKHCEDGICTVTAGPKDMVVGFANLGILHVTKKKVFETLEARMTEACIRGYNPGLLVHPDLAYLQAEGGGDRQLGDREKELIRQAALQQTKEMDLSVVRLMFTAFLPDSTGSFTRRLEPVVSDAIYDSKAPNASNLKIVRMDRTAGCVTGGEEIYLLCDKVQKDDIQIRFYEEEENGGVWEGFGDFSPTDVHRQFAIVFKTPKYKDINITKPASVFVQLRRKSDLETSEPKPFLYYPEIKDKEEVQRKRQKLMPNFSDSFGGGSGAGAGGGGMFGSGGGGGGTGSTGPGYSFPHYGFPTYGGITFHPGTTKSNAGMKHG
Description: (§1) The labeled DNA substrate (50 fmol), poly dI-dC (1 ug, to reduce non-specific protein-DNA interactions) and varying amounts of recombinant NFkβ (p50 subunit) were combined in a 20 uL volume and incubated for 30 min. at room temperature. Dnase 1 (2 Units in a volume of 2 uL, Promega Corp.) was then added and the incubation was continued for an additional 30 min. at room temperature. The reaction was terminated and the biotin-labeled DNA sequences captured by in the addition of 10 µg of streptavidin Dynabeads (IGEN, International) in 0.3 ml PBS-1 containing 0.2 M EDTA, followed by incubation for 15 minutes. The reaction mixture was introduced into an ORIGEN Analyzer (IGEN International) running in Magnetic Capture Mode and the ECL signal from RuBpy on the magnetic beads was determined in the presence of a solution containing tripropylamine (ORIGEN Assay Buffer, IGEN International). A control was also run in the absence of Dnase to determine the ECL signal obtained from the uncleaved substrate. […] The addition of NFkβ gave a dose dependent increase in signal relative to that obtained from unprotected DNA, the magnitude of which approached, for high concentrations of NFkβ, the signal obtained in the absence of DNAse. The experiment was repeated with an DNA substrate with the same nucleotide sequence but containing only phosphodiester linkages and similar results were obtained.

SP-1 = SP-1 (UniProt P08047 P08047:2-785); test: footprint; ECL 38880 vs 54041 unprotected; no DNase protection
Sequence of SP-1 (P08047 2-785, one chain of several): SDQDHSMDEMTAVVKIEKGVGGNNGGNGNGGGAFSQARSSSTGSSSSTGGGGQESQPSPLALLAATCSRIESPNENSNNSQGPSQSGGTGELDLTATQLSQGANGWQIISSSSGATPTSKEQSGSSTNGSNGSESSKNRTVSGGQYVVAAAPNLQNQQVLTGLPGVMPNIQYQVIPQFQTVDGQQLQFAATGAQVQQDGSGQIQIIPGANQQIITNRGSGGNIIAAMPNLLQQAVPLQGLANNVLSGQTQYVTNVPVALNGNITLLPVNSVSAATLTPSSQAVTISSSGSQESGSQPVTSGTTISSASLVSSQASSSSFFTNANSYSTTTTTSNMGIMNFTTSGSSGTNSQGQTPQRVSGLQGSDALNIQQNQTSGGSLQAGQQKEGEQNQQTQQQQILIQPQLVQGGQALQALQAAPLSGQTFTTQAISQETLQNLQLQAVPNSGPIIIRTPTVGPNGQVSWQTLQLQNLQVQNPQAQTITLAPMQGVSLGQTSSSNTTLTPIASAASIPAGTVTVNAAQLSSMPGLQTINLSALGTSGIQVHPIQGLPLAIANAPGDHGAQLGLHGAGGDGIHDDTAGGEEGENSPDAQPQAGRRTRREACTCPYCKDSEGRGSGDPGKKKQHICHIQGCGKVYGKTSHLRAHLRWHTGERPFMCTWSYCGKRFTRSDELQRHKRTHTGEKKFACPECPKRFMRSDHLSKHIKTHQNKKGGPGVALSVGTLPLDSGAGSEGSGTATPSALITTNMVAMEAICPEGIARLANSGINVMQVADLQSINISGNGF
Description: (§2) The labeled DNA substrate (50 fmol), poly dI-dC (1 ug, to reduce non-specific protein-DNA interactions) and varying amounts of recombinant NFkβ (p50 subunit) were combined in a 20 uL volume and incubated for 30 min. at room temperature. Dnase 1 (2 Units in a volume of 2 uL, Promega Corp.) was then added and the incubation was continued for an additional 30 min. at room temperature. The reaction was terminated and the biotin-labeled DNA sequences captured by in the addition of 10 µg of streptavidin Dynabeads (IGEN, International) in 0.3 ml PBS-1 containing 0.2 M EDTA, followed by incubation for 15 minutes. The reaction mixture was introduced into an ORIGEN Analyzer (IGEN International) running in Magnetic Capture Mode and the ECL signal from RuBpy on the magnetic beads was determined in the presence of a solution containing tripropylamine (ORIGEN Assay Buffer, IGEN International). A control was also run in the absence of Dnase to determine the ECL signal obtained from the uncleaved substrate. […]
(§3) The specificity of the assay was determined by replacing the specific binding protein NFkβ with other DNA binding proteins specific for sequences not present on the DNA substrate (the phosphorothioate containing substrate was used).

AP-2 = AP-2 (UniProt P05549 P05549:1-437); test: footprint; ECL 32289 vs 54041 unprotected; no DNase protection; settings: chain copies: 2
Sequence of AP-2 (P05549 whole entry, one chain of several): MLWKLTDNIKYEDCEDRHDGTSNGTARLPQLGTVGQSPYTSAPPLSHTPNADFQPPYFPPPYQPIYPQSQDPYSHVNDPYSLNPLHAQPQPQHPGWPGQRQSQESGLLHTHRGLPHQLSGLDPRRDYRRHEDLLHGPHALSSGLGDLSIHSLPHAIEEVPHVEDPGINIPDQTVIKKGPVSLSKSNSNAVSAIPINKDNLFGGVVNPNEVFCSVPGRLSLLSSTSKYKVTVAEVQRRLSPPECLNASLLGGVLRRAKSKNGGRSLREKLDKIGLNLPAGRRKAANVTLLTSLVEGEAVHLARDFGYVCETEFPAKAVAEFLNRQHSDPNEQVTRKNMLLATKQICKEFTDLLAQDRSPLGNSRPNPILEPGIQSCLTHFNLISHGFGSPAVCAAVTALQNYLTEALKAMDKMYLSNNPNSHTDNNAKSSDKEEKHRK
Description: as §2, §3

NF-kB p50 subunit [2] = target: T1, NF-kB p50 subunit; test: footprint; DNase I protection, similar results to phosphorothioate substrate; settings: tags: recombinant, Promega; chain copies: 2 inferred
Description: as §1

Row | Binder | binding result (NF-kB p50 subunit [1]) | binding result (SP-1) | binding result (AP-2) | binding result (NF-kB p50 subunit [2])
1 | B1 | binds | no binding | no binding | 
2 | B2 |  |  |  | binds
